From paper PMC9691347, “C9orf72 regulates the unfolded protein response and stress granule formation by interacting with eIF2α” (Theranostics, 2022) come the findings set out here.

For this test, the target named is T1, MBP-tagged eIF2α (MBP-eIF2α) (human, UniProt P05198 1-315).
T1 construct: full-length human EIF2S1 cDNA in pMAL-c2x; source: Rosetta E. coli, purified (dextrin beads 6FF)
Description: pull-down; 0.5 µg purified GST or GST-tagged proteins on glutathione magnetic beads, incubated with 0.5 µg purified MBP or MBP-eIF2α for 4 h at 4°C; six washes with 400 mM NaCl, 0.5% Triton X-100; western blot. Conditions: both partners purified. A general note: In western blotting, separated proteins are transferred to a membrane and probed.

T1 sequence (P05198 whole entry): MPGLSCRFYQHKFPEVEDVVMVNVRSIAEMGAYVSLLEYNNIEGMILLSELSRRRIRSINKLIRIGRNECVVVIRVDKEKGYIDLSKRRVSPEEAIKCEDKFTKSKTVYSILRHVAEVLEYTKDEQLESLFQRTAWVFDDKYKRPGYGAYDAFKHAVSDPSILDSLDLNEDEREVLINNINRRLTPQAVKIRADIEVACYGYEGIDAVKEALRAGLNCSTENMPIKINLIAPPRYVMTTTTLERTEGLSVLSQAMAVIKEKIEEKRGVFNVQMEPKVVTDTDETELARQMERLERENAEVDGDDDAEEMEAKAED

B1: GST-tagged C9orf72 short protein isoform (GST-C9S) (natural protein, human, UniProt Q96LT7-2 1-222, looked up)
chain: MSTLCPPPSPAVAKTEIALSGKSPLLAATFAYWDNILGPRVRHIWAPKTEQVLLSDGEITFLANHTLNGEILRNAESGAIDVKFFVLSEKGVIIVSLIFDGNWNGDRSTYGLSIILPQTELSFYLPLHRVCVDRLTHIIRKGRIWMHKERQENVQKIILEGTERMEDQGQSIIPMLTGEVIPVMELLSSMKSHSVPEEIDIADTVLNDDDIGDSCHEGFLLK
notes: human C9orf72 short protein isoform, 222 aa, encoded by exons 2-5; pGEX-6P-1 vector; source: Rosetta E. coli, purified (glutathione magnetic beads)
Regarding B1, the binding result is “binds”.
